Assay [1] concerns the target T1, cynomolgus monkey FcγRIIa1 extracellular domain, C-terminal His-tag (cynomolgus monkey).
T1 construct: also called cyno FcγRIIa1; cynoFcgRIIa1; not shown: His-tag added to C-terminus
T1 chain: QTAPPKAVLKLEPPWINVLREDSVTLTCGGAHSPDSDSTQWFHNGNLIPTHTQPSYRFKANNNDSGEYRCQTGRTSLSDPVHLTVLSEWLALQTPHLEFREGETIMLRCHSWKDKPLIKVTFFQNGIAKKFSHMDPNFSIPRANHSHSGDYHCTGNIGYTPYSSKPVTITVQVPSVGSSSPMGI
The experiment in a line: SPR (BIACORE), antibody captured, FcγR analyte. (In SPR one partner is held on a chip, and binding of the other changes the refractive index at the surface.)

For assay [2], the target named is T2, cynomolgus monkey FcγRIIa2 extracellular domain, C-terminal His-tag (cynomolgus monkey).
T2 construct: also called cyno FcγRIIa2; cynoFcgRIIa2; not shown: His-tag added to C-terminus
T2 chain: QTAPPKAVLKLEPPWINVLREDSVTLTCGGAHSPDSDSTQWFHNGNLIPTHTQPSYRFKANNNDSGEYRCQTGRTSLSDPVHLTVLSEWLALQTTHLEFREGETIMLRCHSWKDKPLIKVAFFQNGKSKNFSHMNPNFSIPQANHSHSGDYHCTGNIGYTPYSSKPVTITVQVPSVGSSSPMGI
The experiment in a line: SPR (BIACORE), antibody captured, FcγR analyte.

Assay [3] concerns the target T3, cynomolgus monkey FcγRIIa3 extracellular domain, C-terminal His-tag (cynomolgus monkey).
T3 construct: also called cyno FcγRIIa3; cynoFcgRIIa3; not shown: His-tag added to C-terminus
T3 chain: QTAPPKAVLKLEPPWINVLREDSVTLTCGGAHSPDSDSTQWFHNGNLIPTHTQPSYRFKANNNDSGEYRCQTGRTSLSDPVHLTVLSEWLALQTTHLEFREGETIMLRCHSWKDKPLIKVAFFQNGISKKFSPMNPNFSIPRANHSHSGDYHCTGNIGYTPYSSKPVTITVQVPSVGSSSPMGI
The experiment in a line: SPR (BIACORE), antibody captured, FcγR analyte.

Assay [4] addresses T4, cynomolgus monkey FcγRIIb extracellular domain, C-terminal His-tag (cynomolgus monkey).
T4 construct: also called cyno FcγRIIb; cynoFcγRIIb; not shown: His-tag added to C-terminus
T4 chain: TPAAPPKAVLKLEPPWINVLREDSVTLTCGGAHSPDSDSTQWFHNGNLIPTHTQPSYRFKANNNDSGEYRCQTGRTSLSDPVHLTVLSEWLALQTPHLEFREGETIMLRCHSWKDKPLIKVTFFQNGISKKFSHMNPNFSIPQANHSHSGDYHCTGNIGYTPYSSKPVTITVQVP
In words: SPR (BIACORE), antibody captured, FcγR analyte.

Assay [5] deals with T5, cynomolgus monkey FcγRIIIaS extracellular domain, C-terminal His-tag (cynomolgus monkey, UniProt A3RFZ7 21-206 (rhesus entry)).
T5 construct: also called cyno FcγRIIIaS; cynoFcγRIIIaS; not shown: His-tag added to C-terminus
In words: SPR (BIACORE), antibody captured, FcγR analyte.

Assay [6] has as its target T6, human FcγRIIaH extracellular domain, C-terminal His-tag (human, UniProt P12318 34-217).
T6 construct: also called human FcγRIIa (type H); FcgRIIaH; not shown: His-tag added to C-terminus
T6 sequence: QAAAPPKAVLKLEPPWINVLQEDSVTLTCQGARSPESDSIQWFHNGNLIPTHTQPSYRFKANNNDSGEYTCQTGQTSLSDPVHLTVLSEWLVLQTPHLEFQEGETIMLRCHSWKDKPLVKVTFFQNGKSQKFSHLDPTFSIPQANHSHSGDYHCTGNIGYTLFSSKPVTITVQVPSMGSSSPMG
In words: SPR (BIACORE), antibody captured, FcγR analyte.

Assay [7] addresses T7, human FcγRIIaR extracellular domain, C-terminal His-tag (human, UniProt P12318 34-217).
T7 construct: also called human FcγRIIa (type R); FcgRIIaR; not shown: His-tag added to C-terminus
T7 chain: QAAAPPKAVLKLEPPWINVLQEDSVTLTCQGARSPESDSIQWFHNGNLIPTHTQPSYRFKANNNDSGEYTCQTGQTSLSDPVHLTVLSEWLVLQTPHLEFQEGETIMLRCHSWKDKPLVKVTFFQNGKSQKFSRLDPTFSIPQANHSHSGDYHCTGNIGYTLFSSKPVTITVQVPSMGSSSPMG
In words: SPR (BIACORE), antibody captured, FcγR analyte.

Assay [8] addresses T8, human FcγRIIb extracellular domain, C-terminal His-tag (human, UniProt P31994 43-217).
T8 construct: also called humanFcgRIIb; not shown: His-tag added to C-terminus
T8 sequence: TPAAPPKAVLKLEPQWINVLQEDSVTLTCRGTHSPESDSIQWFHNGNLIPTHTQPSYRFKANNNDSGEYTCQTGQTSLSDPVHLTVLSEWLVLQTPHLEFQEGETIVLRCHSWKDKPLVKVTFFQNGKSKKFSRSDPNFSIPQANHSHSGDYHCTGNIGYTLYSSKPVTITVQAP
The experiment in a line: SPR (BIACORE), antibody captured, FcγR analyte.

The target in assay [9] is T9, human FcγRIIIaV extracellular domain, C-terminal His-tag (human, UniProt P08637 17-208).
T9 construct: also called FcgRIIIaV; not shown: His-tag added to C-terminus
In words: SPR (BIACORE), antibody captured, FcγR analyte.

The target in assay [10] is T1, cynomolgus monkey FcγRIIa1 …. In words: SPR (BIACORE); KD of parent SG1 / KD of variant.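 Note: relative to parent M103205H795-SG1 carrying the SG1 human heavy chain constant region.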
In assay [11] the target is T2, cynomolgus monkey FcγRIIa2 …. The experiment in a line: SPR (BIACORE); KD of parent SG1 / KD of variant.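 Note: relative to parent M103205H795-SG1 carrying the SG1 human heavy chain constant region.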
Assay [12] addresses T3, cynomolgus monkey FcγRIIa3 …. The experiment in a line: SPR (BIACORE); KD of parent SG1 / KD of variant.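 Note: relative to parent M103205H795-SG1 carrying the SG1 human heavy chain constant region.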
The target in assay [13] is T4, cynomolgus monkey FcγRIIb extracellular …. In words: SPR (BIACORE); KD of parent SG1 / KD of variant.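 Note: relative to parent M103205H795-SG1 carrying the SG1 human heavy chain constant region.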
The target in assay [14] is T5, cynomolgus monkey FcγRIIIaS …. The experiment in a line: SPR (BIACORE); KD of parent SG1 / KD of variant.
Assay [15] deals with T6, human FcγRIIaH extracellular domain, …. The experiment in a line: SPR (BIACORE); KD of parent SG1 / KD of variant.
Assay [16] concerns the target T7, human FcγRIIaR extracellular domain, …. The experiment in a line: SPR (BIACORE); KD of parent SG1 / KD of variant.
In assay [17] the target is T8, human FcγRIIb extracellular domain, …. In words: SPR (BIACORE); KD of parent SG1 / KD of variant.
The target of assay [18] is T9, human FcγRIIIaV extracellular domain, …. The experiment in a line: SPR (BIACORE); KD of parent SG1 / KD of variant.

The Kd is a measure of binding affinity in units of concentration.

T5 sequence (A3RFZ7 21-206): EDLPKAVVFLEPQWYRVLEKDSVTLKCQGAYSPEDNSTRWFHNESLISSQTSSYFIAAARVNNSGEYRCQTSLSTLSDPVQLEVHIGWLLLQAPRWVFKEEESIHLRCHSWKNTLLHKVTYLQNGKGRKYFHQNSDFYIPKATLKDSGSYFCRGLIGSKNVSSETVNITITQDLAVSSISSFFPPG
T9 sequence (P08637 17-208 F176V): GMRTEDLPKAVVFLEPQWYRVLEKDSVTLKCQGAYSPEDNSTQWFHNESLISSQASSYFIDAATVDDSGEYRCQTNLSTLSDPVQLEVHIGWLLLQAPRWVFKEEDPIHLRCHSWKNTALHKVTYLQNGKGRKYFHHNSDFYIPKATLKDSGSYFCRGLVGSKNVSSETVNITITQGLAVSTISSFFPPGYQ

B1: M103240H795-SG1071 / M103202L1045-SK1 (antibody)
heavy: QVQLVESGGGLVQPGGSLRLSCAVSGIDLSHDDISWVRQAPGKGLEWVSIISYAGSTYYASWAKGRLTISKDTSKNQVVLTMTNMDPVDTATYYCARGVPAYSHGGDLWGQGTLVTVSSASTKGPSVFPLAPSSKSTSGGTAALGCLVKDYFPEPVTVSWNSGALTSGVHTFPAVLQSSGLYSLSSVVTVPSSSLGTQTYICNVNHKPSNTKVDKKVEPKSCDKTHTCPPCPAPELLNGPSVFLFPPKPKDTLMISRTPEVTCVVVDVSDEDPEVKFNWYVDGVEVHNAKTKPREELYNSTYRVVSVLTVLHRDWLNGKEYKCKVSNKALPKPIEKTISKAKGQPREPQVYTLPPSREEMTKNQVSLTCLVKGFYPSDIAVEWESNGQPENNYKTTPPVLDSDGSFFLYSKLTVKKSRWQQGNVFSCSVLHEALHAHTTRKELSLSP
light: DIVMTQSPATLSLSPGERATLSCTTSQSVYHENWLSWFQQKPGQPPKLLIYWASTLAYGVPSRFSGSGSGTDFTLTISSLQPEDAATYYCAGGYGGGRYAFGQGTKVEIKRTVAAPSVFIFPPSDEQLKSGTASVVCLLNNFYPREAKVQWKVDNALQSGNSQESVTEQDSKDSTYSLSSTLTLSKADYEKHKVYACEVTHQGLSSPVTKSFNRGEC
notes: CH with G236N/H268D/Q295L/Q311R/A330K/D413K/M428L/N434A/Y436T/Q438R/S440E against SG1 (EU numbering); also called MS1032LO19-SG1071
With B1, the Kd worked out at 1200 nM in [1]; 1500 nM in [2]; 2100 nM in assay [3]; 530 nM in assay [4]; 5800 nM in [5]; 690 nM in [6]. For the same molecule, the dissociation constant (Kd) in [7] was found to be 1200 nM; in assay [8], 680 nM; in assay [9], 14000 nM. The “KD fold (SG1 = 1)” value in assay [10] came out at 3 fold; in assay [11], 3.2 fold; in assay [12], 3.1 fold; in assay [13], 5.3 fold; in assay [14], 0.07 fold; in assay [15], 1.4 fold. Moreover, the “KD fold (SG1 = 1)” value in assay [16] turned out to be 0.8 fold; in assay [17], 5.6 fold; in assay [18], 0.04 fold.

B2: M103240H795-SG1074 / M103202L1045-SK1 (antibody)
heavy: QVQLVESGGGLVQPGGSLRLSCAVSGIDLSHDDISWVRQAPGKGLEWVSIISYAGSTYYASWAKGRLTISKDTSKNQVVLTMTNMDPVDTATYYCARGVPAYSHGGDLWGQGTLVTVSSASTKGPSVFPLAPSSKSTSGGTAALGCLVKDYFPEPVTVSWNSGALTSGVHTFPAVLQSSGLYSLSSVVTVPSSSLGTQTYICNVNHKPSNTKVDKKVEPKSCDKTHTCPPCPAPELLNGPSVFLFPPKPKDTLMISRTPEVTCVVVDVSDEDPEVKFNWYVDGVEVHNAKTKPREELYNSTYRVVSVLTVLHRDWLNGKEYKCKVSNTALPKPIEKTISKAKGQRREPQVYTLPPSREEMTKNQVSLTCLVKGFYPSDIAVEWESNGQPENNYKTTPPVLDSDGSFFLYSKLTVDKSRWQQGNVFSCSVLHEALHAHTTRKELSLSP
light: DIVMTQSPATLSLSPGERATLSCTTSQSVYHENWLSWFQQKPGQPPKLLIYWASTLAYGVPSRFSGSGSGTDFTLTISSLQPEDAATYYCAGGYGGGRYAFGQGTKVEIKRTVAAPSVFIFPPSDEQLKSGTASVVCLLNNFYPREAKVQWKVDNALQSGNSQESVTEQDSKDSTYSLSSTLTLSKADYEKHKVYACEVTHQGLSSPVTKSFNRGEC
notes: CH with G236N/H268D/Q295L/Q311R/K326T/A330K/P343R/M428L/N434A/Y436T/Q438R/S440E against SG1 (EU numbering); also called MS1032LO19-SG1074
B2: the Kd in [1] is 700 nM; in assay [2], 680 nM; in [3], 1100 nM; in [4], 160 nM; in assay [5] it was 1400 nM; in assay [6] it was 450 nM. Further, the Kd was 540 nM in assay [7], 380 nM in assay [8] and 4500 nM in assay [9]. In addition, the “KD fold (SG1 = 1)” value was 5.4 fold in assay [10]; 6.1 fold in assay [11]; 6.2 fold in [12]; 11.1 fold in [13]; 0.19 fold in assay [14]; 2.2 fold in assay [15]. The results for the “KD fold (SG1 = 1)” value in assay [16], in assay [17] and in [18] were 1.8 fold, 10.2 fold and 0.18 fold, respectively.
